Where a chain is given by its changes, count along the chain named. Names may count otherwise.
T1: human VEGF (8-109) (human, UniProt P15692 214-315, ALEXA FLUOR 488 or ALEXA FLUOR 647 succinimidyl ester label in the flow cytometry experiments)
T1 construct: range 8-109; The SPR section says only 'human VEGF'; also called VEGF antigen
T1 sequence (looked up): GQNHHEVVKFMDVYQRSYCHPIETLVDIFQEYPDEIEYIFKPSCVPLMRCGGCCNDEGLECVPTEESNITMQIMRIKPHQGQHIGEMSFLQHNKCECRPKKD

B1: anti-IL-13 half-antibody WT (antibody, V domains shown)
VH: QVTLRESGPALVKPTQTLTLTCTVSGFSLSAYSVNWIRQPPGKALEWLAMIWGDGKIVYNSALKSRLTISKDTSKNQVVLTMTNMDPVDTATYYCAGDGYYPYAMDNWGQGSLVTVSS
VL: DIVMTQSPDSLSVSLGERATINCRASKSVDSYGNSFMHWYQQKPGQPPKLLIYLASNLESGVPDRFSGSGSGTDFTLTISSLQAEDVAVYYCQQNNEDPRTFGGGTKVEIK
notes: Half-antibody (one heavy and one light chain, knobs-into-holes Fc); Expressed in the E. coli periplasm; for SPR captured from periplasmic extract; also called anti-IL-13 WT; Half-Ab
B2: anti-IL-13 half-antibody framework variant E6Q (heavy chain) (antibody, name in Kabat numbering, V domains shown)
VH: B1 VH with E6Q
VL: B1 VL
notes: Half-antibody
B3: anti-IL-13 half-antibody framework variant F27L (heavy chain) (antibody, name in Kabat numbering, V domains shown)
VH: B1 VH with F27L
VL: B1 VL
notes: Half-antibody
B4: anti-IL-13 half-antibody framework variant M4L (light chain) (antibody, name in Kabat numbering, V domains shown)
VH: B1 VH
VL: B1 VL with M4L
notes: Half-antibody

How the values were obtained:
[1] = target: T2, Unizyme-tagged human IL-13 (33-146) (human, UniProt P35225 33-146, ALEXA FLUOR 488 or ALEXA FLUOR 647 succinimidyl ester label in the staining and flow cytometry experiments); test: SPR (Biacore 3000), half-antibody from E. coli periplasmic extract captured by Fab Binder, human IL-13 as analyte, 25 C
T2 construct: range 33-146; The SPR section says only 'Human IL-13'; also called huIL-13; IL-13 antigen; not shown: Unizyme tag
T2 sequence (P35225 33-146, form in doubt): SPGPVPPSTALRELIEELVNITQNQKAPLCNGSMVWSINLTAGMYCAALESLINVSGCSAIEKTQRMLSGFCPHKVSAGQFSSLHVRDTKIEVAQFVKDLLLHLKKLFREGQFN

[2] = target: T1, human VEGF (8-109); test: flow cytometry (SSC against labeled VEGF) of the anti-VEGF spiking experiment, bacterial antibody display; no unstained control is drawn in these panels
Method: For bacterial display, antibodies were expressed in a Lpp deletion (Δlpp) of strain 62A7. […] After 24 hours at 30° C., 1 OD aliquots were harvested and pelleted by centrifugation (4 minutes, 6500 rcf). Cells were resuspended in 100 μL PBS pH 7.4 with 2% BSA and 5 mM EDTA and incubated at 4° C. for 30 minutes. After initial incubation, SYTO® 41 or 9 nucleic acid stain (Molecular Probes, USA) was added to a final dilution of 1:100, and ALEXA⁴⁶⁸- or ALEXA⁶⁴⁷-labeled antigen added to a final concentration of 1-2 μM. Incubation was continued at 4° C. in darkness for 1 hour, at which time MgCl₂ was added to 10-20 mM final concentration. Unbound proteins were removed by washing 3 times with 1 mL volumes of PBS pH 7.4+20 mM MgCl₂. […] The FACS™ gating strategy included cells that were SYTO® dye-positive. Doublet discrimination gates were used to remove doublets and finally antigen-positive cells were sorted.

Binder | Kd [1] [nM] | koff [1] [s⁻¹] | kon [1] [M⁻¹ s⁻¹] | binding result [2]
B1 | 0.04 | 5.09e-05 | 1.3e+06 | no binding
B2 | 0.038 | 4.26e-05 | 1.13e+06 | 
B3 | 0.034 | 4.43e-05 | 1.3e+06 | 
B4 | 0.029 | 3.16e-05 | 1.11e+06 | 

— patent publication US20180030434A1 (Genentech, published 2018)
